Reference: paper PMC10657410

Target: GST-ApCaV2a1 C-terminal fragment 1 with the putative RxLPxxP site removed (Aplysia californica)
Assay: pull-down; GST protein on glutathione beads rotated with His-tag protein eluate overnight at 4 °C; washed 4 x 10 min with PBS; eluted by boiling; SDS-PAGE, Ponceau stain and blot with anti-His antibody

His-SH3-3 domain of Aplysia RIM-binding protein (ApRBP) (domain or fragment)
percent of binding remaining: 26%
